In patent US20200115460A1:

Experiments:
[1] = molecular target: IGF-I receptor (cell line of the PathHunter IGF1R Functional Assay, DiscoverX) (UniProt P08069); test: cell-based or functional assay
[2] = molecular target: insulin receptor (cell line of the PathHunter INSR Functional Assay, DiscoverX) (UniProt P06213); test: cell-based or functional assay

activation of the IGF-I receptor (PathHunter, solvent group = 100%) at 5 nM [1] [%] | activation of the IGF-I receptor (PathHunter, solvent group = 100%) at 50 nM [1] [%] | activation of the insulin receptor (PathHunter, solvent group = 100%) at 5 nM [2] [%] | activation of the insulin receptor (PathHunter, solvent group = 100%) at 50 nM [2] [%] | activation of the IGF-I receptor (PathHunter, solvent group = 100%) at 0.5 nM [1] [%] | Substance
109 | 109 | 104 | 111 |  | FLAG M2 antibody
1240 | 4620 |  |  | 184 | Insulin (ligand)
